Assay results as given in article PMC4838387, “PolDIP2 interacts with human PrimPol and enhances its DNA polymerase activities”.

Target: T1, PrimPol24-354 (AEP catalytic domain);PolDIP2 (untagged) (human;human?, UniProt Q96LW4;Q9Y2S7 24-354;1-368, |)
T1 sequence 1: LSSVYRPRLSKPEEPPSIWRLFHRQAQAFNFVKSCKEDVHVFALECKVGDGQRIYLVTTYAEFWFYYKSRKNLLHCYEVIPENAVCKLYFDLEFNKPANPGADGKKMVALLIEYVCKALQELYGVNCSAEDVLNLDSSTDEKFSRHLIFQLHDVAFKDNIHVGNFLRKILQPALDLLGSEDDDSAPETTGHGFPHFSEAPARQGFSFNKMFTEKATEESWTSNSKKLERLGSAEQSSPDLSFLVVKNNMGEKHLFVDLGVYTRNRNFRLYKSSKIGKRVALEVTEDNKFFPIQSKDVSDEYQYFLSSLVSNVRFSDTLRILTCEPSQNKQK
T1 sequence 2: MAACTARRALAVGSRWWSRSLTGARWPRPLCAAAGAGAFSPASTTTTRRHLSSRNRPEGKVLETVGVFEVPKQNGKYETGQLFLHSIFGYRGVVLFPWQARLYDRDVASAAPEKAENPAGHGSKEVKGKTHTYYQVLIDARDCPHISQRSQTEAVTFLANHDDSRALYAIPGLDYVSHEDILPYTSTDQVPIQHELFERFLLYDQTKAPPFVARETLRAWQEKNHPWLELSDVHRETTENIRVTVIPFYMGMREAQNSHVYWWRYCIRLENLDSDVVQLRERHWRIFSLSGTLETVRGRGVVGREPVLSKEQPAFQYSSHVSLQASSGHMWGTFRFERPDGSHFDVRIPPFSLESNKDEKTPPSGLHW
Assay: EMSA; PolDIP2 50-250 nM with PrimPol; more DNA bound than by PrimPol alone, super-shifted complex; 10 mM Mg2+; EMSA: 10 mM Bis-Tris-propane-HCl pH 7.0, 10 mM MgCl2, 100 uM DTT, 20 nM DNA; 5% native PAGE, 0.5x TBE; binding temperature not stated
Details: protein: recombinant;recombinant; tags: ;none (GST cleaved with PreScission protease); copies: 1;1; label: 5'-HEX on primer; 3'-biotin on template; 20 bp duplex; template 5' overhang 77 nt

B1: 20/97-mer primer/template (HP-20 / ND-97) (mixed)
DNA 1: TGTCGTCTGTTCGGTCGTTC
DNA 2: ACCGCGAACTTGAATTCTAGTTCAGTCTAAATGCTCTCAAGCACTGAGCAATTCACAACATATGGCTTTCGATTACCGAACGACCGAACAGACGACA
B1: binds.
